# Experimental data published in paper PMC10630141, “OPUS-DSD: deep structural disentanglement for cryo-EM single-particle analysis” (Nature Methods, 2023).
# B1: ZCCHC8 (natural protein, UniProt Q6NZY4 1-707, looked up)
# chain: MAAEVYFGDLELFEPFDHPEESIPKPVHTRFKDDDGDEEDENGVGDAELRERLRQCEETIEQLRAENQELKRKLNILTRPSGILVNDTKLDGPILQILFMNNAISKQYHQEIEEFVSNLVKRFEEQQKNDVEKTSFNLLPQPSSIVLEEDHKVEESCAIKNNKEAFSVVGSVLYFTNFCLDKLGQPLLNENPQLSEGWEIPKYHQVFSHIVSLEGQEIQVKAKRPKPHCFNCGSEEHQMKDCPMPRNAARISEKRKEYMDACGEANNQNFQQRYHAEEVEERFGRFKPGVISEELQDALGVTDKSLPPFIYRMRQLGYPPGWLKEAELENSGLALYDGKDGTDGETEVGEIQQNKSVTYDLSKLVNYPGFNISTPRGIPDEWRIFGSIPMQACQQKDVFANYLTSNFQAPGVKSGNKRSSSHSSPGSPKKQKNESNSAGSPADMELDSDMEVPHGSQSSESFQFQPPLPPDTPPLPRGTPPPVFTPPLPKGTPPLTPSDSPQTRTASGAVDEDALTLEELEEQQRRIWAALEQAESVNSDSDVPVDTPLTGNSVASSPCPNELDLPVPEGKTSEKQTLDEPEVPEIFTKKSEAGHASSPDSEVTSLCQKEKAELAPVNTEGALLDNGSVVPNCDISNGGSQKLFPADTSPSTATKIHSPIPDMSKFATGITPFEFENMAESTGMYLRIRSLLKNSPRNQQKNKKASE
# notes: ZCCHC8 of the nuclear exosome-targeting (NEXT) complex; The complex was cross-linked with glutaraldehyde before the grids were made; ZCCHC8 forms the dimeric centre of the complex; also called ZCCHC8 center; ZCCHC8 dimeric center; source: HEK293 GnTI- cells infected with recombinant baculovirus, overexpressed separately; cell pellets of the three NEXT proteins mixed, purified as the complex …
# Target: the molecule itself
# Assay: cryo-EM structure; NEXT complex (MTR4, RBM7, ZCCHC8) purified on poly-flag-tag beads and Superdex 200, cross-linked in a 10-30% glycerol gradient with 0.2% glutaraldehyde, dialysed into 20 mM HEPES pH 7.4, 150 mM NaCl; single-particle analysis, signal of one MTR4 helicase domain subtracted
protein,measurement,value
B1,stoichiometry N,2
